Target: T1, ArcA-His6 (acetyl phosphate present or absent) (Escherichia coli K1 Rs218 (O18:H7:K1)) (UniProt P0A9Q1)
T1 sequence: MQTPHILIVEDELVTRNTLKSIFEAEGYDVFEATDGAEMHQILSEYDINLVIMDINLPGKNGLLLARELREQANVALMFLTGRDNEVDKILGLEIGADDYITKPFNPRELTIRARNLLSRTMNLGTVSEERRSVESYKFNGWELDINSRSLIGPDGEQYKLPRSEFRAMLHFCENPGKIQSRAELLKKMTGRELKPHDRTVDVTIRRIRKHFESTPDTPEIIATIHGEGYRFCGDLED
Test: EMSA
Settings: 10 mM Tris-HCl pH 7.4, 50 mM KCl, 0.1 mM EDTA, 0.2 mM DTT

Sequence	binding (+/- 30 mM acetyl phosphate, 37 C 30 min, 6% PAGE in 0.5x TBE, GelRed stain)	binding ([…])
ACGAACTGTTCACCGCCACTCGCGGTCAGGGCGCACAGCTGAACGGCTACCGTCTGCGCGGCAGCACCGCTCGCGATCTCGACGGTACTATTCTGGCGACCGGCTTCCCGTTCAAAGCAAAACAGTACGCCACTACCTACATCAACATCGTCGGCA (double strand) [suhB gene fragment]	no binding	
ATTTGGTTGTAACACGGCGTATGGCACATGCGTCGTTAGCGGTCTGGGGACGTTAAAGGGGACAATCCACTCCTTGCTCGAGCAGACAAACCAGGTAGCCGGAATGTGCAAGTCAATGAGGATGCTGATAAGACGCCTAACCAGCGTGGCGATTCGGTTTGACGCCTGGGAAGAGACCAGGGTGCAACGATGAGGGCATTTATGGAACCGCGACAAAGTGTGGTGCCGTAACTGGCTAAGTGCTCTCAGC (double strand) [sRNA-17 promoter (PsRNA-17)]		binds

Source: article PMC7719688
